Test results reported in patent US10011657B2, “Anti-CS1 antibodies and antibody drug conjugates” (AbbVie Biotherapeutics Inc., priority 2014, dated 2018).
Where two headings read alike, the source gives them in different places.

B1: Mu12D10 (conjugate)
VH: EVKLVESEGGLVQPGSSMKLSCTASGFTFSDYFMAWVRQVPEKGLEWVASINYDGNSTYFLDSLKSRFIISRDNAKNILYLQMSSLKSEDTATYYCARDRGFYFDYWGQGTTLTVSS
VL: DVVMTQTPLSLPVSLGDQASISCRFSQSLVHRNGNTYLHWYLQKPGQSPKLLIYKVSNRFSGVPDRFSGSGSGTDFTLKISRVEAEDLGVYFCSQSTHVRPYTFGGGTKLEIR
modifications: conjugate
B2: Mu31D2 (conjugate)
VH: EVKLVESEGGLVQPGSSMKLSCTASGFTFSDYYMAWVRQVPEKGLEWVADINYDGGSTYYLDSLKSRFIISRDNAKNILCLQMSSLKSEDTATYYCARDRGYYFDYWGQGTTLTVSS
VL: DVVMTQTPLSLPVSLGDQASISCRSSQSLVHSNGNTYLHWYLQKPGQSPKLLIYKVSNRFSGVPDRFSGSGSGTDFTLKISRVEAEDLGVYFCSQSTHVPPFTFGGGTKLEIK
modifications: conjugate
B3: Mu27A12 (conjugate)
VH: EVKLVESEGGLVQPGSSMKLSCTASGFTFSDYYMAWVRQVPEKGLEWVAEINYDGSSTYYLDSLKSRFIISRDNAKNILYLQMSNLKSEDTATYYCARDRGFYFDYWGQGTTLTVSS
VL: DVVMTQTPLSLPVSLGDQASISCRSSQSLVHNNGNTYLHWYLQKPGQSPKLLIYKVSNRFSGVPDRFSGSGSGTDFTLKISRVEAEDLGVYFCSQSTHVPPYTFGGGTKLEIK
modifications: conjugate
B4: Mu34C3: murine anti-CS1 antibody, VH SEQ ID NO: 5, VL SEQ ID NO: 6; in Table 5 tested as MMAE, MMAF, duocarmycin ADCs (antibody, V domains shown)
VH: EVKLVESEGGLVQPGSSMKLSCTASGFTFSDYYMAWVRQVPEKGLEWVASINYDGSSTYYLDSLKSRFIISRDNAKNILFLQMNSLKSEDTATYYCARDRGYYFDYWGQGTTLTVSS
VL: DVVMTQTPLSLPVSLGDQASISCRSSQSLVHSNGNTYLHWYLQKPGQSPKLLIYKVSNRFSGVPDRFSGSGSGTDFTLKISRVEAEDLGVYFCSQSTHVPPFTFGGGTKLEIK
B5: Mu14C11 (conjugate)
VH: EVKLVESEGGLVQPGSSMKLSCTASGFTFSDYYMAWVRQVPEKGLEWVASINYDGSSTYYLDSLKSRFIISRDNAKNILYLQMSGLKSEDTATYSCARDRGFYFDYWGQGTTLTVSS
VL: DVVMTQTPLSLPVSLGDQASISCRSSQSLVHRNGNTYLHWYLQKPGQSPKLLIYKVSNRFSGVPDRFSGSGSGTDFTLKISRVEAEDLGVYFCSQSTHVPPYTFGGGTKLEIK
modifications: conjugate
B6: Hu27A12: humanized anti-CS1 antibody, VH SEQ ID NO: 24, VL SEQ ID NO: 26 (antibody, V domains shown)
VH: EVQLVESGGGLVQPGGSLRLSCAASGFTFSDYYMAWVRQAPGKGLEWVAEINYDGSSTYYVDSVKGRFTISRDNAKNSLYLQMNSLRAEDTAVYYCARDRGFYFDYWGQGTTVTVSS
VL: DVVMTQTPLSLSVTPGQPASISCRSSQSLVHNNGNTYLHWYLQKPGQSPQLLIYKVSNRFSGVPDRFSGSGSGTDFTLKISRVEAEDVGVYFCSQSTHVPPYTFGGGTKVEIK

Experiments:
OPM-2 xenografts = OPM-2 xenografts in effector-cell-negative NSG mice; assay type: in vivo
Method: (§1) OPM-2 xenografts were prepared and conducted as previously described. NSG mice (NOD.Cg-Prkdcscid Il2rgtm1Wj1/SzJ) from The Jackson Laboratory (strain code 05557) were used. This strain lacks effector cells and eliminates the ADCC mechanism for all antibodies. AB095, an antibody that targets tetanus toxoid, was run as control. Dosing of test ADCs was normalized such that equal masses of the PBD component were delivered.
as §1, with “toxoid” for “toxoid,”, “SN38” for “PBD”
The combination of Hu34C3-MMAE E2 plus carfilzomib inhibited tumor growth (TGImax 43% (FIG. 26A) and TGImax 59% (FIG. 26B)) at similar levels to Hu34C3-MMAE E2 alone.
Efficacy of Hu34C3-MMAE E2 in combination with pomalidomide ((also known as 4-Amino-2-(2,6-dioxopiperidin-3-yl)isoindole-1,3-dione; marketed under the tradename POMALYST by Celgene Corporation, Summit, N.J. 07901) and/or dexamethasone ((also known as 8S,9R,10S,11S,13S,14S,16R,17R)-9-fluoro-11,17-dihydroxy-17-(2-hydroxyacetyl)-10,13,16-trimethyl-6,7,8,9,10,11,12,13,14,15,16,17-dodecahydro-3H-cyclopenta[a]phenanthren-3-one) was determined in subcutaneous xenografts of OPM-2 cells (van Rhee et al., 2009 Mol. Cancer Therapeutics 8: 2616-24). Effector-cell-negative mice were used (NSG strain) in this experiment. Vehicle (PBS/DMSO) was run as a control. ADCs were dosed at 3 or 6 mg/kg i.p.; pomalidomide was dosed at 20 mg/kg i.p. and dexamethasone was dosed at 10 mg/kg i.p.
Efficacy of Hu34C3-MMAE E2 was determined in subcutaneous xenografts of OPM-2 cells (van Rhee et al., 2009 Mol. Cancer Therapeutics 8: 2616-24). These xenografts were treated with bortezomib twice a week for two weeks. […] These tumors were re-randomized and either continued with bortezomib treatment or were switched to lenalidomide plus dexamethasone, pomalidomide, Hu34C3-MMAE E2, or Hu34C3-MMAE E2 plus pomalidomide treatments.

human CS1 [1] = molecular target: T1, human CS1 (Homo sapiens, UniProt Q9NQ25); assay: Flow-cytometry competition assay with AF488-labeled PDL241 (murine antibodies, Example 2); assay type: binding; conditions: 293s cells transfected with human CS1; 60 μg/mL unlabeled test antibody, 6 μg/mL labeled PDL241; less than 20% inhibition = does not compete
T1 construct: expressed in transfected cells; host or cells: 293s cells
T1 sequence (Q9NQ25 23-335): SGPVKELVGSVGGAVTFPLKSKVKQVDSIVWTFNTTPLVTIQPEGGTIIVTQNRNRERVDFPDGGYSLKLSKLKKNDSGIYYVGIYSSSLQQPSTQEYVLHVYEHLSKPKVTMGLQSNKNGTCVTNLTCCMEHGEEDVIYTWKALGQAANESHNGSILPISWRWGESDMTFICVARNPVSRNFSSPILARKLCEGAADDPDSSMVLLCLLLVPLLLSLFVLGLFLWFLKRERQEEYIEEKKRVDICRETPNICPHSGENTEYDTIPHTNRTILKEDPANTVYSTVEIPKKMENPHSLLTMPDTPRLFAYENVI
Method: 293s cells transfected with human CS1 (300,000 cells per data point) were incubated at various concentrations with an AF488-labeled PDL241 antibody. The concentration at which 80% of maximal binding occurred was identified (6 μg/mL) and used for the subsequent competition assays.
(§2) For the competition assays, transfected 293s cells (300,000 cells per data point) were incubated for 30 min (on ice) with a tenfold excess of unlabeled test antibody (60 μg/mL). After the incubation, 6 μg/mL of AF488-labeled PDL241 was added to the cells and incubated on ice for 30 minutes. After this incubation, the cells were washed with PBS+1% FBS, and binding of AF488-labeled PDL241 was determine by flow cytometry.

[2] = system: L-363 human multiple myeloma cells; assay: In vitro proliferation assay (CellTiter-Blue), L-363 cells; assay type: cell-based; conditions: four days
Method: All antibodies were conjugated to each of monomethyl auristatin E (“MMAE”; auristatin microtubule inhibitor), monomethyl auristatin F (“MMAF”; auristatin microtubule inhibitor) and duocarmycin (DNA damaging drug) using previously described methods (Doronina et al., 2003, Nat Biotechnology 21(7):778-784; Polson et al., 2007, Blood 1102:616-623). Drug loading for each ADC was similar. 10,000-20,000 cells (L-363 human multiple myeloma cells) expressing HuCS1 were plated into 96-well plates, and different amounts of ADCs added to the cells. Four days post addition of ADC, cell viability was measured using the CellTiter-Blue® Cell Viability Assay (Promega), and IC50 values were calculated.

human CS1 [3] = molecular target: T1, human CS1; assay: Flow-cytometry competition assay with AF488-labeled PDL241 (humanized antibodies, Example 5); assay type: binding; conditions: 293s cells transfected with human CS1; 50 μg/mL test antibody, 5 μg/mL labeled PDL241
Method: as §2, with “293s cells” for “For the competition assays,”, “transfected with human CS1 were incubated at various concentrations with an AF488 labeled PDL241 antibody. […] Transfected” for “transfected”, “(50” for “(60”, “5” for “6”, “FBS” for “FBS,”

human CS1 [4] = molecular target: T1, human CS1; assay: Flow-cytometry competition assay with AF488-labeled elotuzumab; assay type: binding; conditions: 293s cells transfected with human CS1; 100 μg/mL test antibody, 10 μg/mL labeled elotuzumab
Method: A similar experiment was conducted with AF488-labeled elotuzumab at 10 μg/mL. Transfected 293s cells (300,000 cells per data point) were incubated for 30 min (on ice) with a tenfold excess of unlabeled antibody (100 μg/mL). After the incubation, 10 μg/mL of AF488-labeled elotuzumab was added to the cells and incubated on ice for 30 minutes. After this incubation, the cells were washed with PBS+1% FBS and binding of AF488-labeled elotuzumab determined by flow cytometry.

HuCS1 = molecular target: T2, HuCS1 (Homo sapiens, UniProt Q9NQ25); assay: Flow-cytometry competition assay with AF488-labeled Luc34.3.8 on L-363 cells; assay type: binding; conditions: 20 μg/mL test antibody, 2 μg/mL labeled Luc34.3.8
T2 construct: L-363 cells (human multiple myeloma cell line) expressing HuCS1; endogenous in cells; host or cells: L-363 human multiple myeloma cell line
T2 sequence (Q9NQ25 23-335): as above
Method: A similar experiment was conducted with AF488-labeled Luc34.3.8 at 2 μg/mL. L-363 cells (human multiple myeloma cell line) expressing HuCS1 (300,000 cells per data point) was incubated for 30 min (on ice) with a tenfold excess of unlabeled test antibody (20 μg/mL). After the incubation, 2 μg/mL of AF488-labeled Luc34.3.8 was added to the cells and incubated on ice for 30 minutes. After this incubation, the cells were washed with PBS+1% FBS, and binding of AF488-labeled […] determined by flow cytometry.

human CS1 [5] = molecular target: T1, human CS1; assay: Flow-cytometry competition assay with AF488-labeled Hu34C3; assay type: binding; conditions: 293s cells transfected with human CS1; 100 μg/mL test antibody, 10 μg/mL labeled Hu34C3
Method: For the competition assays, transfected 293s cells (300,000 cells per data point) were incubated for 30 min (on ice) with a tenfold excess of unlabeled test antibody (100 μg/mL).

[6] = Example 29, low-dose Hu34C3-MMAE E2 3 mg/kg i.p., pomalidomide 20 mg/kg i.p., dexamethasone 10 mg/kg i.p.
[7] = antibody conjugated to MMAF, read-out: IC50, MMAF ADC
[8] = antibody conjugated to duocarmycin, read-out: IC50, Duo ADC
[9] = antibody conjugated to MMAE, read-out: IC50, MMAE ADC

Row | Molecule | Competition with AF488-labeled PDL241 for binding (human CS1 [1]) | IC50 [2, 7] | IC50 [2, 8] | IC50 [2, 9] | other results
1 | CC(C)C[C@H](NC(=O)[C@H](Cc1ccccc1)NC(=O)c1cnccn1)B(O)O [bortezomib, [(1R)-3-methyl-1-[[(2S)-1-oxo-3-phenyl-2-[(pyrazinylcarbonyl)amino]propyl]amino]butyl]boronic acid] | – | – | – | – | TGImax (OPM-2 xenografts; Example 27, Hu34C3-MMAE E2 3 mg/kg, bortezomib 1 mg/kg): 58%; TGImax at end of two week treatment (OPM-2 xenografts; Example 31, bortezomib twice a week for two weeks): 66%
2 | CC(C)C[C@H](NC(=O)[C@H](CCc1ccccc1)NC(=O)CN1CCOCC1)C(=O)N[C@@H](Cc1ccccc1)C(=O)N[C@@H](CC(C)C)C(=O)[C@@]1(C)CO1 [carfilzomib, (S)-4-Methyl-N-((S)-1-(((S)-4-methyl-1-((R)-2-methyloxiran-2-yl)-1-oxopentan-2-yl)amino)-1-oxo-3-phenylpropan-2-yl)-2-((S)-2-(2-morpholinoacetamido)-4-phenylbutanamido)pentanamide] | – | – | – | – | TGImax (OPM-2 xenografts; Example 28, single agents, carfilzomib at 1.5 and 3 mg/kg): < 10%
3 | C[C@@H]1C[C@H]2[C@@H]3CCC4=CC(=O)C=C[C@]4(C)[C@@]3(F)[C@@H](O)C[C@]2(C)[C@@]1(O)C(=O)CO [dexamethasone] | – | – | – | – | TGImax (OPM-2 xenografts; [6]): 25%
4 | Nc1cccc2c1C(=O)N(C1CCC(=O)NC1=O)C2=O (stereo not drawn) [pomalidomide, 4-Amino-2-(2,6-dioxopiperidin-3-yl)isoindole-1,3-dione] | – | – | – | – | TGImax (OPM-2 xenografts; [6]): 34%
5 | B1 | do not compete with PDL241 | 0.15 nM | 0.2 nM | – | –
6 | B2 | do not compete with PDL241 | 0.12 nM | 0.2 nM | 3.5 nM | –
7 | B3 | do not compete with PDL241 | 0.11 nM | 0.19 nM | 3.5 nM | –
8 | B4 | do not compete with PDL241 | 0.08 nM | 0.25 nM | 1.3 nM | –
9 | B5 | do not compete with PDL241 | 0.25 nM | 0.31 nM | – | –
10 | B6 | – | – | – | – | Competition with AF488-labeled PDL241 for binding (human CS1 [3]): do not compete with, and bind different epitopes than, PDL241; Competition with AF488-labeled elotuzumab for binding (human CS1 [4]): do not compete with, and bind different epitopes than, elotuzumab; Competition with AF488-labeled Luc34.3.8 for binding (HuCS1): do not compete with, and bind different epitopes than, Luc34.3.8; Competition with AF488-labeled Hu34C3 for binding (human CS1 [5]): None of the anti-CS1 antibodies tested (including Hu27A12 and Hu31D2) compete with Hu34C3
